Source: the nanobody polyreactivity screen of Harvey et al. (2022)

Test: yeast display, Sf9 membrane polyspecificity reagent, FACS + sequencing; frameworks hold sequencing errors
In short: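 Synthetic nanobody libraries on Saccharomyces cerevisiae BJ5465 were galactose-induced for 36–48 hours, stained 1 hour at 4 °C with 10% biotinylated, detergent-solubilized Sf9 membrane reagent and enriched on streptavidin microbeads. FACS then separated cells into low and high (top ~1%) gates by anti-HA (expression) and streptavidin (reagent binding) fluorescence. Genes were colony-PCR amplified, MiSeq 2 × 250 sequenced and CDR-length filtered. A clone's polyreactivity label is that of its gate of origin.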

| Sequence | polyreactivity (PSR sort gate) |
| --- | --- |
| QVQLVESGGGLVQAGGSLRLSCAASGRIFKYNAMGWYRQATGKERELVAAISSSGGSTYYADSVKGRFTISRDNANNTVYLQMNSLKPEDTAVYYCAARYNSRVYRYDYWGQGTQVTVSS | high polyreactivity |
| QVQLVESGGGLVQAGGSLRLSCAASGRIFKYYAMGWYRQAPGKERELVAAITSAGNTKYADSVKGRFTISRDNAKNTVYLQMNSLKPEDTAVYYCARGRYYVIGSYDYWGQGTQVTVSS | high polyreactivity |
| QVQLVESGGGLVQAGGSLRLSCAASGRIFKYYAMGWYRQAPWKERELVDTIRRSGGSTYYADSVKGRFTISRDNAKNTVYLQMNSLKPEDTAVYYCNARYLFLQAWLRPYRSDYWGQVTQVTVSS | high polyreactivity |
| QVQLVESGGGLVQAGGSLRLSCAASGRIFLFYAMGWYRQAPGKERELVASITSSGGDTSYYADSVKGRFTISLDNAKNTVYLQMNSLKPEDNAVYYCASRPWTSWRYYYWGQGTQVTVSS | high polyreactivity |
| QVQLVESGGGLVQAGGSLRLSCAASGRIFLGYAMGRYRPARGKERELVAAISTSGGSTYYADSVKGRFTISRDNAKNTVYLQMNSLKPEDTAVYYCAARNVRTYVTGVDYDYWGQGTQVTVSS | high polyreactivity |
| QVQLVESGGGLVQAGGSLRLSCAASGRIFLINAMGWYRQAPGKERELVAAITSSGGSTYYADSVKGRFTISRDNAKNTVYLQMNSLKPEDTAVYYCATRSYRGRPYNYWGQGTQVTVSS | high polyreactivity |
| QVQLVESGGGLVQAGGSLRLSCAASGRIFLIYTMGWYRQAPGKERELVASITFRSGSTYYADSVKGRFTISRDNAKNTVYLQMNSLKPEDTAVYYCAADRGVLNQFDYWGQGTQVTVSS | low polyreactivity |
| QVQLVESGGGLVQAGGSLRLSCAASGRIFLKYTMGWYRQAPGKERELVAAISRGGSTYYADSVKGRFTISRDNAKNTVYLQMNSLKPEDTAVYYCAATSYRRTGYNYWGQGTQVTVSS | high polyreactivity |
| QVQLVESGGGLVQAGGSLRLSCAASGRIFLLNAMGWYRQAPGKERELVARISSGRTYYADSVKGRFTISRDNAKNTVYLNMNSLKPEDTAVYYCNATVSSSKYRYFYVNPYYYWGQGTQVTVSS | low polyreactivity |
| QVQLVESGGGLVQAGGSLRLSCAASGRIFLLNPMGWYRKAPGKERELVARISSGRTYYADSVKGRFTISRDNAKNTVYLQMNILKPEDTAVYYCNATVSSSKYRYFYVNPYDYWGQGTQVTVSS | low polyreactivity |
| QVQLVESGGGLVQAGGSLRLSCAASGRIFLRNAMGWSRQAPRKERELVAAISSSGGRTYYADSVKGRFTISRDNAKNTVYLQMNSLKPEDTAVYYCNARWHGSFDYWGQGTQVTVSS | low polyreactivity |
| QVQLVESGGGLVQAGGSLRLSCAASGRIFLRNDMGWYRQAPGKERELFAGISSDGSTYYADSVKGRFTISRDNAKNTVYLQMNSLKPEDTAVYYCAAERWGNPTDYQFWRPYDYWGQGTKVTVSS | low polyreactivity |
| QVQLVESGGGLVQAGGSLRLSCAASGRIFLRNDMGWYRQAPGKERELVAGISSDGSTYYADSVKGRFTISRDNAKNTVYLQMNSLKPEDTAVYYCAAERWGNPTDYQFWRPYDYWGQGTQVTVSS | low polyreactivity |
| QVQLVESGGGLVQAGGSLRLSCAASGRIFLRYALGWYRQAPGKEREWVAVITWSGGSTNYADSVKGRFTISRDNAKNTVYLQMNSLKPEDTAVYYCAVDNTGRSWPYDYWGQGTQVTVSS | low polyreactivity |
| QVQLVESGGGLVQAGGSLRLSCAASGRIFLSNAMGRYRQAPRKDRELVAAISWTGGSTYYADSVKGRFTISRDNAKNTVYLQMNSLKPEDTAVYYCAASTVGQTYSYYVDTYDYWGQGTQVTVSS | low polyreactivity |
| QVQLVESGGGLVQAGGSLRLSCAASGRIFLSNGMGWYRQAPGKERELVAGITTGGGDSTYYADSVKGRFTISRDNAKNTVYLQMNSLKPEDTAVYYCNADSVYAGFDYWGQGTQVTVSS | low polyreactivity |
| QVQLVESGGGLVQAGGSLRLSCAASGRIFLSYAMGWYRQAPGKERELVAAIRSTGTRTYYADSVKGRFTISRDNAKNTVYLQMNSLKPEDTAVYYCAVGDYGLWSYDYWGQGTQVTVSS | low polyreactivity |
